From patent publication US20130251714A1

Target: CXCR5 (human; form in the assay not stated) (UniProt P32302)
Assay: side-by-side comparison; method not stated

fold higher affinity than the commercial antibodies: 10 fold | off rate, times better than the other antibodies: 100 times
B1: Mouse anti-hCXCR5 mAb clone 16D7 (antibody, V domains shown)
VH: QVQLKESGPGLVAPSQSLSITCTVSGFSLIDYGVNWIRQPPGKGLEWLGVIWGDGTTYYNSALKSRLSIRKDNSQSQVFLKMNSLQTDDTAMYYCARIVYWGQGTLVTVSA
VL: DIVMTQAAPSVAVTPRESVSISCRSSKSLLHSSGKTYLYWFLQRPGQSPQLLIYRMSNLASGVPDRFSGSGSGTAFTLRISRVEAEDVGVYYCMQHLEYPYTFGGGTKLEIK
